Assay results: the supplement of paper PMC12455559
± gives the standard deviation of the averaged measurements.

Experiments:
[1] = melting temperature (DSF); higher = more thermostable
Outline: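 Candidate enzymes were expressed in E. coli C41(DE3), purified on nickel beads and released by SUMO protease cleavage. For differential scanning fluorimetry, 45 μL enzyme (0 to 0.3 mg/mL) was mixed with 5 μL 5X Sypro Orange in sealed PCR plates on a Bio-Rad CFX96 instrument. Fluorescence was read from 25 °C in steps of 0.3 °C per cycle (ramp 0.3 °C/s) for 250 cycles. The read-out is melting temperature.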

[2] = purified protein yield per well (BCA); higher = higher soluble expression
Outline: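 Purified protein yield per well is reported, as measured by the Pierce Rapid Gold BCA kit. The enzymes came from E. coli C41(DE3) autoinduction cultures of 2 mL with 100 µg/mL kanamycin, held at 37 °C for 2 h and 18 °C for 40 h, then lysed and purified on Ni-charged magnetic beads with SUMO protease release. The detection threshold is 25 ug (0.1 mg/mL), and lower values are under it.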

[3] = PET hydrolysis, aromatic products released after 48 h (umol product/mg enzyme); higher = more PET depolymerization activity
Outline: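 The measure of PET hydrolysis activity is aromatic product released into the supernatant, given per mg enzyme. Nickel-purified, SUMO-cleaved enzyme without tag was added at 5 μg (50 μL) to 3.5 mg amorphous PET film or crystalline PET powder in 450 μL of citrate, phosphate or glycine buffer spanning pH 4.5 to 8.5. After 48 h at 40 or 60 °C in sealed plates without shaking, absorbance at 260 and 280 nm was taken against buffer blanks.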

[4] = substrate: cryPow, 40 °C, pH 4.5
[5] = substrate: cryPow, 40 °C, pH 5.5
[6] = substrate: cryPow, 40 °C, pH 6.5
[7] = substrate: cryPow, 40 °C, pH 7.5
[8] = substrate: cryPow, 60 °C, pH 4.5
[9] = substrate: cryPow, 60 °C, pH 5.5
[10] = substrate: cryPow, 60 °C, pH 6.5
[11] = substrate: cryPow, 60 °C, pH 7.5
[12] = substrate: cryPow, 40 °C, pH 8.5
[13] = substrate: cryPow, 60 °C, pH 8.5
[14] = substrate: aFilm, 40 °C, pH 5.5
[15] = substrate: aFilm, 40 °C, pH 6.5
[16] = substrate: aFilm, 40 °C, pH 7.5
[17] = substrate: aFilm, 60 °C, pH 5.5
[18] = substrate: aFilm, 60 °C, pH 6.5
[19] = substrate: aFilm, 60 °C, pH 7.5
[20] = substrate: aFilm, 40 °C, pH 4.5
[21] = substrate: aFilm, 60 °C, pH 4.5

Row | Sequence | melting temperature [1] | purified protein yield per well [2] | PET hydrolysis [3, 4] | PET hydrolysis [3, 5] | PET hydrolysis [3, 6] | PET hydrolysis [3, 7] | PET hydrolysis [3, 8] | PET hydrolysis [3, 9] | PET hydrolysis [3, 10] | PET hydrolysis [3, 11] | PET hydrolysis [3, 12] | PET hydrolysis [3, 13] | PET hydrolysis [3, 14] | PET hydrolysis [3, 15] | PET hydrolysis [3, 16] | PET hydrolysis ([3]; substrate: aFilm, 40 °C, pH 8.5) | PET hydrolysis [3, 17] | PET hydrolysis [3, 18] | PET hydrolysis [3, 19] | PET hydrolysis ([3]; substrate: aFilm, 60 °C, pH 8.5) | PET hydrolysis [3, 20] | PET hydrolysis [3, 21]
1 | GSLAHIVMVDAYKPTKGSGASQTNPYARGPNPTAASLEASAGPFTVRSFTVSRPSGYGAGTVYYPTNAGGTVGAIAIVPGYTARQSSIKWWGPRLASHGFVVITIDTNSTFDYPSSRSSQQMAALRQVASLNGDSSSPIYGKVDTARMGVMGHSMGGGASLRSAANNPSLKAAIPQAPWDSQTNFSSVTVPTLIFACENDSIAPVNSHALPIYDSMSRNAKQFLEINGGSHSCANSGNSNQALIGKKGVAWMKRFMDNDTRYSTFACENPNSTAVSDFRTANCSLEGSGGSGAHIVMVDAYKPTK [TEP004] | 73.9 C | 77.2 µg | 4 | 33 | 62 | 69 | < 3 | 14 | 76 | 82 | – | – | – | – | – | – | – | – | – | – | – | –
2 | GTTASATTVSGTQAAAAQEYRRGPDPTAQSVEAATGPFAIQQTSVPAGNGFGGGTIYYPTDTSQGTFGAIAISPGWTEDQSAIAWLGPKLASNGFVVMTINNNNAFLDFPDARGTQLLAALDSLTGQSPVAGRIDKNRLAVAGHSMGGGGALRAAATRPEIQAAIPLTPWHLNQDWSSVRVPTLIVGGETDIIASVGAHSEPFYESLTNAPERAYLEMEGQGHFVTNSANPTVGRYVLSWLKRYVDNDTRYEQFLCPAPAPSSVISEYRDSCPGS [DP018] | 66.1 C | 84 µg | – | < 3 | < 3 | < 3 | – | < 3 | < 3 | < 3 | < 3 | < 3 | – | – | – | – | – | – | – | – | – | –
3 | LFDNNGNKKQAYDATLSALNAGGTPVSPSPSVSPTAGPSPSTSPSPSPPPGDNPYQRGPDPTRDSVAANRGTFATAEMSVSPGNGFNGGSIYYPTDTSQGTFGAVAIVPGYTARFADEEAWMGHWLASFGFVVIGVETNSTNDFDTARGTQLLAALDWLTQSSPVRDRIDASRQSVIGHSMGGGGALHAAGNRSSLKAAVGLTPFMPSGTPANNQVPTLMIAGTNDTVVAPSYVTDLYNALPSSTERAYMEFVGADHLFPTRPNNLEMRILIPWLKTFVDSDSRYTQFLCPLMDSSGIAGYRNSCPLLPDQPTPPPTPTPSPTTPTPDPTTPGPGTCTATMSTGQVWGDRYNTSVTVTGTSNWTVVVAITPPQRISATWNGNPTWDSSGNVMTIRANGNGNVFGFTTMFNGNSWARPQIRSCTAG [DP081] | 57.1 C | 244 µg | – | 7.5 ± 0.71 | 21 ± 2.8 | 14.5 ± 0.71 | – | < 3 | < 3 | < 3 | 12.5 ± 2.1 | < 3 | < 3 | < 3 | < 3 | < 3 | < 3 | < 3 | < 3 | < 3 | – | –
4 | LNPYQRGPNPTDAILEASSGPYATSSISVPSIVSGFGGGRIYYPTTTADGTFGGIAISPGFTATWSSLSWLGPRLASHGFVVIGIETNTIYDQPTSRGQQLLAALDYLVNTSSVRTRVDSSRLAVAGHSMGGGGTLWAANSRPSLQAAIPLAPWNTDKSWSGVRVPTLIVGGQSDTVAPVATHSIPFYTSIPAASEKAYLELRSASHFFPQTVNTTVAVSMVSWLKRYVDDDTRYDPWLCPGPSGLSVSDYRDTCPA [TEP178] | 52 C | 64.5 µg | < 3 | 6 | 21 | 29 | < 3 | < 3 | 3 | 4 | – | – | – | – | – | – | – | – | – | – | – | –
5 | LTPSPTPPPTGGTGGCPADAICRGETPGSYSANGPYGSRSYTLSRIQTPGGATVYYPANAEPPFSGLVFTPPYTGSQFMYRAWGPFFASHGIVMVTMDTRTTLDSVDQRAAQQKQVLDALKAENTRSASPLRGKLDTSRLGAVGWSMGGGATWINSAEYSGLKTAMSLAGHNLSALDINARGSNTRVPTLIMNGALDATYLGGLGQSLGVYNNIPRGIPKVIYEVSSAGHFSWGSPTSAGRSVAQIALAFQKTFLDGDTRWATYIRRPSSGVATWRTANLP [ESM175] | 46 C | 285 µg | < 3 | < 3 | < 3 | < 3 | < 3 | < 3 | < 3 | < 3 | – | – | < 3 | < 3 | < 3 | – | < 3 | < 3 | < 3 | – | < 3 | < 3
6 | MAAANPYQRGPDPTLASVAATNGPFATAQMTVPPGNGFNGGYIYYPTDTSLGTWGAVAIVPGYTALFKNEEAWMGPRLASFGFVVIGIETNSRTDFDTARGTQLLAALDYLTQKSAVRNRVDPGRLGVIGHSMGGGGALVAATQRPSLKAAVGLAPFKPSGNLANDRVPTMFIAGNRDTVVTPSYLDGLYGSLPAATKKAYVQINGADHLFATKPNTVEMRTLIPWLKIFLDNDTRYSQFLCPTLLDKTGVSMYRGTCPLI [TEP109] | 61.6 C | 285 µg | 28.5 ± 0.71 | 43 ± 1.4 | 67 ± 7.1 | 65.5 ± 3.5 | 12.5 ± 2.1 | 47 ± 1.4 | 23 ± 4.2 | 5.5 ± 0.71 | – | – | 12.5 ± 2.1 | 10.5 ± 2.1 | < 3 | – | 2 ± 2.8 | < 3 | < 3 | – | 7 ± 1.4 | < 3
7 | MAADNPYQRGPNPTSASVAASRGTFATAELSVPRGNGFGGGKIYYPTDTTQGTFGAIAIVPGYTATWAAEGAWMGHWLASFGFVVIGIDTNSRNDNDTARGTQLLAALDYLTQRSSVRGRVDAKRLAVMGHSMGGGGALVAARQRPSLKAAVGLAPFKPSGPPSADRVPTMVIAGQRDGTVTPSYVDGLYRAIPAGTEKAYLEFAGAGHAFPTRPNPLQMRLVIPWLKSFTDHDTRYHQFLCPLKDRTGVTAYRSTCPLVAPGARD [TEP041] | 54.4 C | 427 µg | < 3 | < 3 | 3 | < 3 | < 3 | < 3 | < 3 | < 3 | – | – | < 3 | < 3 | < 3 | – | < 3 | < 3 | < 3 | – | < 3 | < 3
8 | MAAGPAAVAADNPYQRGPDPTPASVAAPNGPFATAQVSVPPGYGFNGGMIYYPTDTSQGTFGAIAISPGYTALFSVELAWMGPRLASQGFVVIGIETNDRNDFDTARGTQLLAALDYLTGQSSVRSRVDPNRLAVAGHSMGGGGAFSAALRRPALKAAVGFTPFSPSQNLTNMQVPALLYSGQYDTVTTPSSVSNLYNGLPSTTEGAYIEAAGLDHSFPTRPNTLLMRTMIPWVKIFLDNDLRYTQFLCPLMDSSGVLQYRNTCPLVPPGLPSPSPTTAPPTTAPPTTAPPPTTAPPPTTAPPPTTAPPPTTNPPAGACSVSYTTNQWPGGFTRDVRITNTGGSVSSWTLAFTAGSNVSLSNGWNGDWSQSGSQITVRNAAWNGSLASGATVSIGFQGTFSGSTLPPLSNITLNGAACAS [DP068] | 63.4 C | 60 µg | – | 3 | 21 | 36 | – | < 3 | 7 | 17 | 52 | 20 | – | – | – | – | – | – | – | – | – | –
9 | MAENPYERGPAPTTSSIEASRGSFATSTVTVSRLAVSGFGGGTIYYPTSTTAGTFGAISIAPGFTALQSSIAWLGPRLASQGFVVFTIDTLTTSDQPDSRGRQLLAALDYLTQQSSVRSRIDSSRLGVVGHSMGGGGTLEAARSRPSLQAAIPLTGWNLTKTWSTVRVPTLVVGAQADTVAPVASHSIPFYNSLPSSLDKAYLELRGASHFAPNSSNTTIAKYTLSWLKRFIDNDTRYEQFLCPIPSTSLSISDYRGNCPHNG [TEP182] | 53.5 C | 290 µg | < 3 | 6 | 11 | 17.5 ± 2.1 | < 3 | 4 | 12.5 ± 0.71 | 15.5 ± 0.71 | – | – | < 3 | < 3 | < 3 | – | < 3 | < 3 | < 3 | – | < 3 | < 3
10 | MAGAAGWPSTASAADNPYQRGPAPTAASIAADRGPFATAQVTVPRGNGFGGGVIYYPTDTSQGTFGAIAIAPGFSTAWSYYAWQGPRLASFGFVVIGIETNTLNDYADARAAQLLAALDYLVNSSSVRDRVDRNRLAVGGHSMGGGGAILAANQRPSLLTAVGQAPYVPDGSLSGIKSPTIIFAGQTDGTVTPQYAQNAYNTIPGSVERAYVEIANEGHGFPAGGGGGNSGAFARTMMIWLKLFVDKDTRYAPFLCPALTNANGISKYMASCPLDPPGGGPTASPTSTPTSTPTSTPTGSPPTGSTSSLRGVASGRCLDVNGASQSNGATVLIWDCNGQSNQKWTSTSASELRVYGGKCLDVNGGGTADGTAVIIWDCNGQNNQKWRFNSDSSITAVGANKCLDVSANGTANGTRVQIWSCTGGGNQKWTRV [ESM024] | 62.8 C | 86.8 µg | < 3 | < 3 | 3 | 4 | – | – | – | – | – | – | – | – | – | – | – | – | – | – | – | –
11 | MAQTSSCSLMGDVDGSGAIDIVDALLVAQAYVGLNPANYNDACADVDCSDSANIVDALLVAQLYVGLISSFPCEVTPEPTGVSTPTPGGAISIACGSSSAVGSFQADEYYSGGSTYNNSNTVDVSLITDNPPPAALFNNERYGEMSYTIPGFTAGGTYAVTLYFAETYLTSSGSRQFNVSINGTAVLSSFDIYAAAGGQNRAVARAFTTTADSGGQIVIQFTSVTENPKINGISIQAGTAPTPGPTATPGPTSENPYERGPDPSLESVAASRGTFATAELTLSPGNGFGGGFIYYPTDTSLGTWAAVAICPGYTAKFANEETWMGHWLASFGFVVIGIETNTTTDSVDARGTQLLAALDYLTQQSAVRDRVDPDRLMVMGHSAGGGGAFTAAVQRSSLKTVVGLAPASASNMGSLRMPVMIISGQYDDVITPSYINGIWTSLSPTIQRAWIELANNDHLSFTRSNSTEMRVLIPWMKIFLDNDTRYTQFLCPLADSSGISKYENSCPLVP [TEP011] | 64.6 C | 30.6 µg | < 3 | < 3 | < 3 | < 3 | – | – | – | – | – | – | – | – | – | – | – | – | – | – | – | –
